Test results from the DeepSol protein solubility set.

Experiment: soluble on expression in E. coli; label from the status in PepcDB or PDB records

Q: With “MSLTEKVSVFALGGAGEIGKNMYVVELDEDIFVIDAGLMFPGDEMLGIDKVIPDISYLKENKERIQGIFITHGHEDHIGALSYVLRDLKVPVYGTRLTLGLIEIKLKEAGLLKKADLRPIDAKTKLTVAGHFITFFRVNHSIPDAVGVCIQTSQGAIVHTGDFKFDYTPVDGKQADFGKIAAIGQRGVLCLLSDSTNAERPGMSGSESTVGSELNDVIYEAPGRVIVASFASNVHRLQQVFAAAEANNEGHHHHHH” as the sequence, how does the “soluble on expression in E. coli” value read?
A: soluble

Q: For “MIKILAACGAGVNSSHQIKSALEEELSNRGYDVHCDAVMVKDVNEDLMKGYDIFTPIAATDLGFEPGIPVIEAGPILFRIPAMSVPVFDNIRLPAKQNMV”, which “soluble on expression in E. coli” value is on record?
A: not soluble

Q: Which “soluble on expression in E. coli” value does the source give for “VAIDYTRRPSSPAAPQGGVSLSKVTLSKAAPSVSLTKSGERQGAMRVNLNWSTGATPQPKKTGFFAKLAAAAGGNNGIDLDLGCLYELADGSKGVVQALGNSFGSLQAPPFIKLDADDRTGTVTGGENLHINLDRPEMFKRILIFAMIYDGAPNWAAVDGVVTLYPTSGPEVEVRLDTSNSSARICAIAMLQNTGQGITVTREVKYIEGSQADLDKTYSWGMKWAAGRK” here?
A: not soluble

Q: For “MATLFIADLHLQTEEPAIVAGFLRFLAVEARQADALYILGDLFEAWIGDDDPNPLHREMAVAIKSLVDSGVPCFFIHGNRDFLIGKRFARESGMILLPQEKVLDLYGRNVLIMHGDTLCTDDAGYQAFRAKVHNPWVQRLFLTLPLFIRRRIAARMRAGSKAANSSKSLDIMDVNAQTVVAEMEKHRVQWLIHGHTHRPAVHELSANDQPAFRVVLGAWHHEGSMVKVTPDNVELIAFPLLEHHHHHH”, which “soluble on expression in E. coli” value is on record?
A: not soluble

Q: Which “soluble on expression in E. coli” value does the source give for “MLTYETWEENETKGALSVLSWAYKEYKSEIVYACSFGVEGMVLLDLINQVNPSAKVVFLDTNVHFQETYELIQKVRERFPSLNIIEKQPKLTLDEQDKLHGDKLWESNPNLCCKIRKILPLEESLANEKAWISGLRREQSETRKHTKFINQDHRFQSIKVCPLIHWTWKEVWRYVYKHSLPYNSLHDIGYPSIGCEKCTLPVGEGGDSRDGRWAGKVKTECGLHYQ” here?
A: not soluble

Q: With “MGSDKIHHHHHHMDELVDGERESGRAALGRTLRLLREKSGKTLGQLAGETSYDKSYLYRLETGERLSKRAVMEDLDRYHGSGDLLVRLWRDARKDVIKDKYKAFMELEATARVMWKFQLRVPGLLQTEDYARVVLSGLSRAQTTAGNGEEVEEQVAARVGRQEMLHRQPAPSVRVILDEGALRRRVPKEKVWADQLVHLVDVAELASVTLQVLPFTAGVHDLMNSDLTLMWQRVGEPVAYVEGNGFGELVDDPDKVLSYRLSYDLVRDAALTPAESTTFIKRLLEECRS” as the sequence, how does the “soluble on expression in E. coli” value read?
A: not soluble

Q: For “MGSDKIHHHHHHMTGQMNILLANPRGFCAGVDRAISIVERALELFSPPIYVRHEVVHNRYVVQNLKDRGAIFVEELDQVPDNSIVIFSAHGVSQAVRAEAKKRGLKVFDATCPLVTKVHLQVTRASRKGVECILIGHEGHPEVEGTMGQYDNPEGGVYLIESVEDVEALQVKDPENLCFVTQTTLSVDDTLDIIAALQAKFPSIEGPRKDDICYATQNRQDAVRSLATQAKLFIVVGSKNSSNSNRLRELAEKSGAQAYLVDSAADVKAEWFANVDKVAVTAGASAPEVLVKQVIDAITHLAPSVVTEVEGRKEDVVFAVPVELR”, which “soluble on expression in E. coli” value is on record?
A: not soluble

Q: Which “soluble on expression in E. coli” value does the source give for “MSFTPELNMAVCEFNLDSGCNAKESLIEMANNKISLETFKEHNIKALTMKYVNSESMMWEARKIVRIISRLEADEHQSRVAPKRSRSPGSTSPSASNSSSSSSELSFDMFSSKRTVPMKVTSKPKRVIAQASRTMKPHQQESRQESAEKDRANDEKLKKFIESRKLKEQAKKAANIQKCNEVKEAVMFPAKRMKKRQLEQYAYRFK” here?
A: not soluble

Q: For “MPYQQITVNVNDAVAERLADALMEHGALSAAIEDAYAGTQNEQAIFGEPGMPAEQIWQQSKVIALFGEHDEAAAIIQTATQECGLK”, which “soluble on expression in E. coli” value is on record?
A: not soluble

Q: Which “soluble on expression in E. coli” value does the source give for “MIGFAYLRLQKPSVYVIASQHFDGSIAAGLFESFGFKNIRGSSKKGGVKVLIEGLKRLKEGCDVAITPDGPKGPRHSIADGVIALAQKSGVGISACRVVCKNAWRLNTWDQFEIPKPFSEVYYYMLESVIIPKEWELSRAKEYLKTRMDSVGFEEPQRGLGALEHHHHHH” here?
A: soluble

Q: Which “soluble on expression in E. coli” value does the source give for “MGSDKIHHHHHHMSVTNVTREELWAKQHLSCKNMDYAVWERDKSMLQKLSRINGGCSFVVDVYKGCYAYASTGFVDWLGYDRHKIETLEKQGDYLESRIHPHDRSQLEDLQVRLGKFIYNQPFEHRNDYCNVYSFRILNARGNYVRVTSRHQVLEQSHDGKAWLIIGNMSMAPGQKESEQVECTVLNLRNGEMFSPGVVIMNPAFGLTGREMEILRLIQRGFLSKEIADKLCISIHTVHIHRQNLLRKLGVQNSLEAIRLGQESGLLS” here?
A: not soluble

Q: For “MENFIDTLENWRDQKQIISVICKDGIKIDDSIITSFKASKDVGISNGLRIQLTFQEINFKAIVGQTDVSAATGRTSTTNDGGATSKKNTGNTTTSLGSPMLTCKELFSYSASELSDEALKARVTCSKSVSVKNGESTFTA”, which “soluble on expression in E. coli” value is on record?
A: not soluble

Q: For “EWALFLDIDGTLVDIAEQPHDVRVAASLPQDLARLADRLGGALALVTGRRVDWIDAHFGPHLFPAAGLHGVERRRASGELDRAGLAPSLNALRKDLGRRTARMPGVLLEDKVAAVALHYRQAPEREPDVRAMMEMALKVMGDGWVLQHGKMVVELRPASANKGTALEAFLTEPPFAGRRPVAIGDDVTDEEMFRVVNACGGLSVRICETEAPTLARARLASPQALRDLVAELGA”, which “soluble on expression in E. coli” value is on record?
A: not soluble

Q: Which “soluble on expression in E. coli” value does the source give for “SAPPLLSLPLCILPPGSGSPRLVCYCERDSGGDGDRDDFNLYVTDAAELWSTCFSPDSLARLKARFGLSGAEDIHSRFRAACQQQAVTVSLQEDRALITLSGDTPALAFDLSKVPSPEAAPRLQALTLSLAEHVCNLERRLAAAEETITSPKKNTQPAGTQFLPELDHQRGSSGPGVRRRCPGESLINPGFKSKKPAAGVDFDET” here?
A: soluble

Q: For “MHCNDGGPATLGLFSDSDLQQPARVEVLGPQSRVLRGFALPWVEALLPQLDAVLAAAPFRQMQTPGGFTMSVGLSSCGQLGWTTDRSGYRYSPIDPQSQRPWPALPKVFQELAEAAAEAAGFPGFAPDSCLINCYRPGAKMSLHQDKNERDYSAPIVSLSLGLPAIFLFGGRQRSDKSQRVALLHGDVVVWGGVDRLRYHGVLALKDGHHPLLGQQRINLTLRRAGLEHHHHHH”, which “soluble on expression in E. coli” value is on record?
A: not soluble

Q: Which “soluble on expression in E. coli” value does the source give for “MSLKTFTLPASVLFCFLLLIQGLGAAPPGRPDVFPPPLSSEHNGQVAEDAVSRPKDDGVPEVRAARNPEPQDQGELFQGVDPRALASVLLQALDRPASPPSVPGGSQQGTPEEAAEALMTESVRSQTHSLPAPEIQAPAVAPPRPQTQDRDPEEDDRSEEMEALASLLQELRDFSPSNAKRQQETAAAETETRTHTLTRVNLESPGPERVWRASWGEFQARVPERAPLPPPVPSQFQARMSESAPLPETHQFGEGVSSPKTHLGETLTPLSKAYQSLGGPFPKVRRLEGSFLGGSEAGERLLQQGLAQVEAGRRQAEATRQAAAQEERLADLASDLLLQYLLQGGARQRDLGGRELQETQQERENEREEEAEQERRGGGEDDVGEEDEEAAEAEAEAEEAERARQNALLFAEEEDGEAGAEDKRSQEEAPGHRRKDAEGAEEGGEEDDDDEEMDPQTIDSLIELSTKLHLPADDVVSIIEEVEEKRKRKKNAPPEPVPPPRAAPAPTHVRSPQPPPPAPARDELPDWNEVLPPWDREEDEVFPPGPYHPFPNYIRPRTLQPPASSRRRHFHHALPPARHHPDLEAQARRAQEEADAEERRLQEQEEMENYIEHVLLHRPEGHHHHHH” here?
A: soluble

Q: Which “soluble on expression in E. coli” value does the source give for “MYELYTLLAEYYDTIYRRRIERVKAEIDFVEEIFKEDAKREVRRVLDLACGTGIPTLELAERGYEVVGLDLHEEMLRVARRKAKERNLKIEFLQGDVLEIAFKNEFDAVTMFFSTIMYFDEEDLRKLFSKVAEALKPGGVFITDFPCWFYGGRDGPVVWNEQKGEEKLVIMDWREVEPAVQKLRFKRLVQILRPNGEVKAFLVDDELNIYTPREVRLLAEKYFEKVKIYGNLKRELSPNDMRYWIVGIAKSF” here?
A: soluble

Q: Which “soluble on expression in E. coli” value does the source give for “MGSDKIHHHHHHKDDEESTSGYDPNKPIVLTDFYPPEGKLATQVILNGSNFGDSKENVKVFFNDKEASVISVKDDRMLVLAPKRASTIEDPECVVKVQVHEQIEEYKQTFDYYIQTTVTTLVGGSTSAQVNPTGTIPLSEAQFRANIDRCICVDQDKNVFFLVDNDGKFAAFMLNEEADKLISLKSDINALFNSPVLGYNSKDDIVYQFWANRDSHEVYYFDPKTDYAPTTAISSISWDDPNFPNIEGFGVWAAKCNFTMGPDGKMYSRMLGGNLVRIDVENARGENLTNGDLVGTKDGSAYGLVFDPQDENVFYFSNNDKHCIYKYDLRTKECACWAGQEGKSGYLDGPIGQAMFNKPGQMCVDSEGNIILTDTENHCIRKITMSTGYVSTLAGKPQNSGYVNGSAEDAQFKKPLGICIDNDDVMYIGDSENRAIRRLAVE” here?
A: not soluble

Q: Which “soluble on expression in E. coli” value does the source give for “MSDLYVTKEGDMVDAICWRYYAKGQQALAVERVYAANFGLADYGPILKAGITIVLPILPYPKATPVIRIWGSQS” here?
A: not soluble

Q: Which “soluble on expression in E. coli” value does the source give for “MKKIAIFAKVHDPRCQGVASELIAWLEARGLIPLVEAHLARHLGGRQGIVPEDIPVLADMAVVLGGDGTLISAARLIGSRQIPILGVNLGSLGFLTEITLDELYPVLESCLSGDFQVTERMMLTVSVERNGEEICSHRVLNDVVINKGALARIIDMETEVSGIRLTTYKADGLIISTPTGSTGYSLSANGPIVHPSLECITITPICPHTLTNRPIVLESSSGVTVWLRSKDEDVYLTLDGQVGMELKCGDAVHVRRAAHRTRLVMSRSRNYFEVLRTKLKWGERAAALEHHHHHH” here?
A: soluble

Q: For “MASKSQKKVLKKQNKKKKKDPLAPKRALSAYMFYVKDKRLEIIKEKPELAKDVAQVGKLIGEAWGQLSPAQKAPYEKKAQLDKVRYSKEIEEYRKKNQE”, which “soluble on expression in E. coli” value is on record?
A: soluble

Q: For “MDKVPQAVRDYLMEAHQLAAQWSLPNDRGDYINSKSIPIKSVAVIGGGTMGRGIAIAFCLSGFETYLVEVNNKAAEFCKNELEITYKREKAFRRLNDSKVEKLRKNLQITTDFQKLNNCDLIVEAVFEDMKLKKELFTKLDKICKPSCIFGTNTSSLDLNEMSSVLRDPTKVVGIHFFNPANLIRMVEVIYGSKTSSKAVATAFEACRSIKKLPVLVGNCPAFVFNRLLGVYLNQSQKLMYEYGYLPHQIDKIITNFGFLMGPLTVADMNGLDVMEKLKKENGWPASDFEKEVWRQKRYGRKTNKGYYKYDPNTHKKENDIEMEQLIRKFSSAASPNIQILNDQDAVNFLLYPMVNEGLLCIEEGIIHHESLIDIMFILGFGWPVATGGPMRFGWLQGIEKVASTIILWNSLEPNDRTYKVAATLQNVDRKNFAAKL”, which “soluble on expression in E. coli” value is on record?
A: not soluble

Q: Which “soluble on expression in E. coli” value does the source give for “HMSSGSAGLSSLHRTYSQDCSFKNSMYHVGDYVYVEPAEANLQPHIVCIERLWEDSAGEKWLYGCWFYRPNETFHLATRKFLEKEVFKSDYYNKVPVSKILGKCVVMFVKEYFKLCPENFRDEDVYVCESRYSAKTKSFKKIKLWTMPVSSVRFVPRDVPLPVVRVASVFANTD” here?
A: soluble

Q: Which “soluble on expression in E. coli” value does the source give for “MAHHHHHHMKRVNAIESNREEARERQLSVVRERAKHEAEKMAEELERRSGATLDEIGRTLEAKKRESSALQADRESRIWECEHTLEKIRTRKEDEESASERLRQAMQQPGQGLGLRQSATETKEQQLEMVQLDGARGREAVMRERHSIEAVRRTVRKERCRQRRQWIHQIKEMNAKFPEQVRPLAEERKKKYEQATAKEDAAERALAADVKMIEEYLPKPISLEDIPVNPEETDIIRHQFDEVFTQ” here?
A: not soluble

Q: For “MSDLHTKLGSGMNKLQEGIEQGKMKLQVAQEIAQLKKGMQVQMQKKAEVLLEVGQQVYVQLRGSGVNEASLKEMIAPVQEFDVAIYQARKRIVELQKQQGEKATCECGGPLSINDKFCGSCGKPNPMLTVENEGETVNCISCNEHIDKNSTYCPVCGIKQSGE”, which “soluble on expression in E. coli” value is on record?
A: not soluble
